The text below walks through data of US9029097.

This assay concerns the target β2AR-Rluc (human; Renilla reniformis) (UniProt P07550). Nature of the assay: BRET2, living HEK293T cells, Iso, untagged Gβ1γ2 co-expressed. (In general: BRET reads energy transfer from a luciferase to a nearby fluorophore.)

The substance Gαs-GFP10 showed an agonist-promoted increase in BRET of 68%.
